Test results taken from PMC7356358.
“And” between values parts separate entries of the source, which are not always exact repeats. Equal values may be shown once.

Assays:
[1] = molecular target: KPf, chimeric protein of the ATPase domain of DnaK and the substrate binding domain of PfHsp70-1 (Escherichia coli | Plasmodium falciparum); assay: SPR
[2] = system: Nc1ncnc2c1ncn2[C@@H]1O[C@H](COP(=O)(O)OP(=O)(O)OP(=O)(O)O)[C@@H](O)[C@H]1O; assay: purified protein, by the assay type; settings: pH 7.5
Method: Hsp70 proteins at final concentration of 0.4 μM were each incubated for 5 min in buffer HKMD (10 mM HEPES-KOH pH 7.5, 100 mM KCl, 2 mM MgCl2 and 0.5 mM DTT). The reaction was initiated by the addition of ATP at various concentrations (0–5 mM) and samples were analyzed every 30 min for 4 h.
Standard deviations shown represent three independent assays made using separate protein purification batches.
validated by one way ANOVA test (p< 0.05 *) and (p<0.01**).

Substance	kon [1]	Km [2] [µM]
KPf, chimeric protein of the ATPase domain of DnaK and the substrate binding domain of PfHsp70-1	154 M⁻¹ s⁻¹ and 132 M⁻¹ s⁻¹ and 142 M⁻¹ s⁻¹	
PfHsp70-1 (Plasmodium falciparum 3D7)		370.8
